Assay results: patent publication US20210113690A1 (BERLIN CHEMIE, published 2021)

Target: T1, LY75 (DEC-205) on COLO205 cells (human, UniProt O60449 28-1722)
T1 construct: also called Lymphocyte antigen 75
Experiment: competitive FACS on COLO205 cells; competitor anti-LY75-mAb-MCC-DM1
Description: Cells were washed and resuspended in FACS buffer (PBS+2% FBS), neutralized with growth media, and counted. Cells were plated at 50,000 cells per well in a V Bottom 96-well plate. Cells were washed once with FACS buffer (PBS (Fisher, catalog #SH30028-03)+2% FBS). […] Test wells that required single or multiple staining steps were left in FACS buffer as appropriate to ensure the final staining was completed simultaneously for all conditions tested. Two wells were left unstained in FACS buffer as controls.
After the incubation with blocking antibody, cells were washed twice in FACS buffer. […] The cells were washed as above and resuspended in FACS buffer plus 1 μg/ml mouse anti-maytansine antibody and incubated in ice for 45 minutes. The cells were washed as above and resuspended in FACS buffer containing 2 ug/ml goat anti-mouse kappa RPE. The cells were incubated on ice for 45 minutes then washed as above. The cells were resuspended in FACS buffer at 200 μl per well. Mean fluorescence intensity of each sample was determined using a Guava EasyCyte Plus HT Flow Cytometer (96 well plate formats) and the raw data was analyzed using the Guava Cytosoft.

T1 sequence (O60449 28-1722 limits assumed): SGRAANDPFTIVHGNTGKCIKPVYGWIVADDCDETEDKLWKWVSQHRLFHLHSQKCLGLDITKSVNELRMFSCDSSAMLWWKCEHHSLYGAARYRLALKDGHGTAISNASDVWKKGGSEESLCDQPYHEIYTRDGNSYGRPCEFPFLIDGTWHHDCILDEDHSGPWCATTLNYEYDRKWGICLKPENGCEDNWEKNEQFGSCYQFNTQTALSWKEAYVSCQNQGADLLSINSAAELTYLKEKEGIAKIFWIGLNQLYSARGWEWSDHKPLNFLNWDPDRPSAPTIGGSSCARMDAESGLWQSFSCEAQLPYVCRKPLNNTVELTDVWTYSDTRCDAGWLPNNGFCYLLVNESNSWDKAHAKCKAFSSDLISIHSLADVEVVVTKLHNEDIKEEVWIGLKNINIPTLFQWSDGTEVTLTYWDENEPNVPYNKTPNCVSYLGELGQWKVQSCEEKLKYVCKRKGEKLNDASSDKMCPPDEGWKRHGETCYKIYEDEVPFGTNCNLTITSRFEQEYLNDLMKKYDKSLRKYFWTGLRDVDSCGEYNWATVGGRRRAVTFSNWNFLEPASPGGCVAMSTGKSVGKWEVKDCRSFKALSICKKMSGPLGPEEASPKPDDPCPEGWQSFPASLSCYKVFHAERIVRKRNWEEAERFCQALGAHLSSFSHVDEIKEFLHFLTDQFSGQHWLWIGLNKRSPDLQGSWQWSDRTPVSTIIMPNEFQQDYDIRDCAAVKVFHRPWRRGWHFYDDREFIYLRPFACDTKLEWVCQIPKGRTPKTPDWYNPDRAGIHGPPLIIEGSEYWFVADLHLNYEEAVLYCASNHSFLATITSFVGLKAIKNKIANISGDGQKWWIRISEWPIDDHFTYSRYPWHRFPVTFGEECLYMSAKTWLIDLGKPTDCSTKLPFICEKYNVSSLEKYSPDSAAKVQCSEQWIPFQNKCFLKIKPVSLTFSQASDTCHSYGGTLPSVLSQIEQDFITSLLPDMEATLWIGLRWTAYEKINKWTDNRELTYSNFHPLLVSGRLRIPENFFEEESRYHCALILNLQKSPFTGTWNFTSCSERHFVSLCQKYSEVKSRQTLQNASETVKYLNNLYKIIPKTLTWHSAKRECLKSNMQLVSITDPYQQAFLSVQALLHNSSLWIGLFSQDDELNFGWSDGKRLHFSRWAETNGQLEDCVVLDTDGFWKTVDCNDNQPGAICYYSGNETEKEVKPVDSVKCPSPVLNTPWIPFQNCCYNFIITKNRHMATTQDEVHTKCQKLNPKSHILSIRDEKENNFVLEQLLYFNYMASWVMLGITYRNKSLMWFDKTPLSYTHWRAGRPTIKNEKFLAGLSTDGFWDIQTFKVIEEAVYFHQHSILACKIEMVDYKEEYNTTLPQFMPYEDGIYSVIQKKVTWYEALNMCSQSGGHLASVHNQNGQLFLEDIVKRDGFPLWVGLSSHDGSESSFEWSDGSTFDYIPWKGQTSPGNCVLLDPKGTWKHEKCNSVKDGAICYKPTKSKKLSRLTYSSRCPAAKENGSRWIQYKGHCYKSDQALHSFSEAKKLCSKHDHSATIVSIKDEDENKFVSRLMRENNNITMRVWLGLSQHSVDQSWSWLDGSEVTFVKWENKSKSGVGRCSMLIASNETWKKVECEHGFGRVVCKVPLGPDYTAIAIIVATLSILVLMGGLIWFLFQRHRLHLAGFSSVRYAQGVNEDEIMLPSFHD

B1: LY75_A1 monoclonal antibody (antibody, human IgG1, kappa, V domains shown)
VH: EVQLVESGGGLVKPGGSLRLSCAASGFTYSNAWMSWVRQAPGKGLEWVGRIKSKTDGGTTDYAAPVQGRFTISRDDSKNTLYLQMNSLKTEDTAVYYCTIFGVVSFDYWGQGTLVTVSS
VL: DVQMTQSPSSLSASVGDRVTITCRASQSISDYLSWYQQRPGKAPNLLIYAASNLKTGVPSRFSGSGSGTDFTLTISTLQPEDFATYYCQQSYRSPWTFGQGTKVEIKR
notes: also called LY75A1 antibody; antibody LY75_A1
binding result: binds
